Data on 6 compounds can be found in patent publication US5821227A, “Modulators of cytokines of the tgf β superfamily” (Mount Sinai Hospital Corporation, priority 1995, dated 1998).

Experiment [1] deals with T1, TGF-β1 (Homo sapiens, UniProt P01137).
T1 construct: purchased Collaborative Research (Bedford, Mass.)
In words: BIAcore surface plasmon resonance binding to immobilized TGF-β1. The settings on record: for binding to immobilized TGF-β1 (in words): BIAcore sensorgram. As to the method:
(§1) In this system, a purified protein serving as the ligand is covalently coupled to a carboxymethylated dextran surface, and binding molecules (ie. the analyte) are passed in a fluid phase across the surface. Binding of the analyte to ligand causes a change in reflected light which is directly proportional to mass bound, and is measured in arbitrary response units (R.U.). Analyte-ligand binding is observed as both increasing response with time during the injection of analyte, and the difference in the position of the baseline before and after injection.
(§2) Schuster, R. V. Swanson, L. A. Alex, R. B. Bourret, M. I. Simon, Nature 365, 343 (1993). 1000 R.U. equals approximately 1 ng/mm^2. The running buffer was 20 mM Hepes (pH7.2), 150 mM NaCl and the flow rate for all sensorgrams was 3 μl/min. Injection volumes were 36 μl for FIG. 2, 4 and 5 and 45 μl for FIG. 3. […] Protein concentrations in each experiment were (FIGS. 2 and 3), 2, 5, 10, 20, 30, 40 μM; (FIG. 4), 0.21, 0.31, 0.41, 0.62, 0.82, 1.24 μM; (FIG. 5), 0.22, 0.29, 0.44, 0.59, 0.88 μM. R.U. for the immobilized cytokine in each experiment was 2850 R.U. for FIGS. 2 and 3; 7450 R.U. for FIG. 4, and 5300 R.U., for FIG. 5 respectively.
(§3) Data was analyzed using the BIA-evaluation software (Pharmacia Biosensor). The association rate constant, kass, was calculated by first plotting the change in response with time versus response (ie. dR/dT vs R). When the slope of the line from this graph is plotted versus analyte concentration (i.e d(dR/dT)/dR vs C), kass is obtained from the slope of the line. The dissociation rate constant, kdiss, is obtained during the decrease in response with time after analyte injection is discontinued. Specifically, kdiss was obtained from the slope of the line in a plot of ln(Rt1 /Rtn) vs time. The affinity constants were calculated from KD =kdiss /kass. Variance for kass is standard error of the linear regression plot, and for kdiss values are the mean±range of 3 or more independent injections.

The target in experiment [2] is T2, BMP-2 (Homo sapiens, UniProt P12643).
T2 construct: purchased Genetics Institute, Cambridge, Mass; (a gift, not bought)
T2 sequence (P12643 283-396): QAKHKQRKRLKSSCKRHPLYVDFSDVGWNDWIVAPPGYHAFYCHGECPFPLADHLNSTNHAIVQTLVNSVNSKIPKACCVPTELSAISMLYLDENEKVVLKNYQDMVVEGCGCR
In words: BIAcore surface plasmon resonance binding to immobilized BMP-2. The settings on record: for Kd: ligand BMP-2, KD = kdiss/kass; for kdiss / kass: ligand BMP-2 immobilized; for kass: ± standard error of linear regression. The procedure: as §1, §2, §3
(In SPR one partner is held on a chip, and binding of the other changes the refractive index at the surface.)

Experiment [3] has as its target T3, TGF-β2 (Homo sapiens, UniProt P61812).
T3 sequence (P61812 303-414 limits assumed): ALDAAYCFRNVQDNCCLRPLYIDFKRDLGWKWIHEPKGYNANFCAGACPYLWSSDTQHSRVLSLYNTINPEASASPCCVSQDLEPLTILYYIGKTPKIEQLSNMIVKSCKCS
The experiment in a line: BIAcore surface plasmon resonance binding to TGF-β2. The note with it: ligand TGF-β2; for Kd: KD = kdiss/kass; for kass: ± standard error of linear regression. As to the method: as §1, §2, §3

Experiment [4] concerns the target T4, BMP-4 (Homo sapiens, UniProt P12644).
T4 sequence (P12644 293-408): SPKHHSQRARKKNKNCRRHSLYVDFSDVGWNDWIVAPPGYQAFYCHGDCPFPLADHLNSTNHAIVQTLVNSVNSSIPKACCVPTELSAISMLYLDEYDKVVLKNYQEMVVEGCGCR
In words: BIAcore surface plasmon resonance binding to immobilized BMP-4. The settings on record: ligand BMP-4; for Kd: KD = kdiss/kass. As to the method: as §1, §2, §3

Experiment [5] concerns the target T1, TGF-β1. In words: Mv1Lu growth inhibition assay: neutralization of the antiproliferative activity of TGF-β1 (3H-thymidine incorporation). The format is cell-based. The settings on record: Mv1Lu cells; for IC50 / Maximal effect, percent neutralization: TGF-β1 12 pM; for IC50: 3H-thymidine incorporation, read-out: half-maximal inhibition (IC50) of the anti-proliferative activity of TGF-β1; for Maximal effect, percent neutralization: 0% = TGF-β1 alone, 100% = no additions. As to the method:
Mv1Lu cells were seeded at 20,000 cells/well in a 96 well plate containing 0.2% FCS in α-MEM and incubated with the indicated concentrations of proteins for 18 hr. […] Before use, bovine thyroglobulin was spun twice in a centricon (M.W. cutoff of 10,000 Da) micro-concentrator (Amicon, Beverly, Mass.) to remove any excess Iodine and T3/T4 thyroid hormones.
For orientation: Dividing cells build labelled thymidine or BrdU into new DNA.

Experiment [6] deals with T5, BMP-6 (Homo sapiens, UniProt P22004).
T5 sequence (P22004 375-513): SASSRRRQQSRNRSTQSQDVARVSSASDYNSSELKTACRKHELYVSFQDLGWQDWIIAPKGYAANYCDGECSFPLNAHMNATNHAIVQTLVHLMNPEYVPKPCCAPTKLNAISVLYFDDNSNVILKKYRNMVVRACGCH
The experiment in a line: BIAcore surface plasmon resonance binding to immobilized BMP-6. The settings on record: ligand BMP-6. The procedure: as §1, §2, §3

[7] abbreviates: ligand TGF-β1, KD = kdiss/kass, read-out: KD.
Setting [8] is: ligand TGF-β1 immobilized, ± standard error of linear regression.
Setting [9] is: ± standard error of linear regression.

Read-outs that look alike come from different tables or passages of the source.

As usually defined, the Kd is the equilibrium constant for the complex coming apart. As a reminder, the IC50 is the concentration that gives 50% inhibition.

T1 sequence (P01137 279-390 limits assumed): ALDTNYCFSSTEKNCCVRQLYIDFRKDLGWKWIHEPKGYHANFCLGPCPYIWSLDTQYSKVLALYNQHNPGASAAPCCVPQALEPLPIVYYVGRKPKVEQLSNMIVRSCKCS

As for “reduced and alkylated fetuin: Fetuin, reduced and alkylated, compared to native fetuin”, in experiment [1], the “binding to immobilized TGF-β1 (in words)” value is “diminished binding”. The “binding to immobilized BMP-2 (in words)” value in experiment [2] (BIAcore sensorgram) was “diminished binding”.

In the case of “human transferrin: Non-binding control passed over immobilized TGF-β1 [reference compound]”, the “binding to immobilized TGF-β1 (in words)” value in experiment [1] is recorded as “non-binding”.

As for `CC[C@H](C)[C@@H]1NC(=O)[C@H](CC(N)=O)NC(=O)[C@H](CCC(=O)O)NC(=O)[C@H](CC(=O)O)NC(=O)[C@H](CC(N)=O)NC(=O)[C@H](CCCCN)NC(=O)[C@H](CCCNC(=N)N)NC(=O)[C@H](Cc2c[nH]c3ccccc23)NC(=O)[C@H](C(C)C)NC(=O)[C@H](C)NC(=O)[C@H](C(C)C)NC(=O)[C@@H](N)CSSC[C@@H](C(=O)N[C@@H](Cc2c[nH]cn2)C(=O)N[C@@H](CC(=O)O)C(=O)O)NC(=O)[C@H](C(C)C)NC(=O)[C@H]([C@@H](C)O)NC(=O)[C@H](CCC(=O)O)NC(=O)[C@H](CC(C)C)NC(=O)[C@H]([C@@H](C)O)NC1=O` [TRH1b (TβRII)], the koff in experiment [1] (ligand TGF-β1 immobilized, read-out: kdiss (dissociation rate)) was 0.0019 s⁻¹. Further, the kon in experiment [1] (ligand TGF-β1 immobilized, ± standard error of linear regression, read-out: kass (association rate)) is 3700 M⁻¹ s⁻¹.

On to `CC[C@H](C)[C@H](NC(=O)[C@H](CC(N)=O)NC(=O)[C@H](CCC(=O)O)NC(=O)[C@H](CC(=O)O)NC(=O)[C@H](CC(N)=O)NC(=O)[C@H](CCCCN)NC(=O)[C@H](CCCNC(=N)N)NC(=O)[C@H](Cc1c[nH]c2ccccc12)NC(=O)[C@@H](NC(=O)[C@H](C)NC(=O)[C@@H](NC(=O)[C@@H](N)CSCC(N)=O)C(C)C)C(C)C)C(=O)N[C@H](C(=O)N[C@@H](CC(C)C)C(=O)N[C@@H](CCC(=O)O)C(=O)N[C@H](C(=O)N[C@H](C(=O)N[C@@H](CSCC(N)=O)C(=O)N[C@@H](Cc1c[nH]cn1)C(=O)N[C@@H](CC(=O)O)C(=O)O)C(C)C)[C@@H](C)O)[C@@H](C)O` [TRH1b (TβRII) (reduced & alkylated)], for which the Kd in experiment [1] (setting [7]) was over 10000 nM.

As to “Thyroglobulin: Bovine thyroglobulin purchased from Sigma, containing the TRH1 domain”, the dissociation constant (Kd) in experiment [1] (setting [7]) was found to be 680 nM. In experiment [1] (ligand TGF-β1 immobilized), the “kdiss (dissociation rate)” value was determined as 0.0019 s⁻¹. For the same compound, in experiment [1] (setting [8]), the “kass (association rate)” value was 2800 ± 1000 M⁻¹ s⁻¹. In addition, in experiment [3], the kdiss was determined as 0.005 s⁻¹, the Kd came to 3800 nM and the kass is 1300 ± 600 M⁻¹ s⁻¹. In experiment [4], this compound showed a kdiss of 0.0011 s⁻¹ and a Kd of 20 nM. The same compound registered a kass in experiment [4] (setting [9]) of 54000 ± 7000 M⁻¹ s⁻¹. In experiment [2], the Kd worked out at 3.1 nM, the kdiss was 0.0001 s⁻¹ and the kass came to 32000 ± 2000 M⁻¹ s⁻¹. In experiment [5], the “IC50 for inhibition of TGF-β1 activity, fold lower than for fetuin” value is recorded as 20 fold; the IC50 stood at 220 nM; the “Maximal effect, percent neutralization” value is reported as “approximately 150%”.

Regarding “Fetuin: Bovine fetuin, glycoprotein from fetal calf serum (ammonium sulfate fractionation, gel filtration), purchased from Sigma”, the Kd was found to be 4600 nM in experiment [1] (ligand TGF-β1, steady-state, read-out: KD, Scatchard type analysis for steady-state binding); 860 nM in experiment [6] (KD = kdiss/kass); 5800 nM in experiment [3]; 140 nM in experiment [4]; 36 nM in experiment [2]. Also, in experiment [1] (ligand TGF-β1 immobilized), the “kdiss (dissociation rate)” value was 0.0016 s⁻¹. Besides, the “kass (association rate)” value in experiment [1] (setting [8]) was 670 ± 400 M⁻¹ s⁻¹. Also, the kdiss in experiment [6] was 0.0025 s⁻¹; in experiment [3] it was 0.0032 s⁻¹; in experiment [4] it was 0.00058 s⁻¹; in experiment [2] it was 6.2e-05 s⁻¹; in experiment [2] (listed as fetuin), 6.2e-05 s⁻¹. The kass in experiment [6] (setting [9]) was found to be 2900 ± 500 M⁻¹ s⁻¹; in experiment [3] it was 550 ± 120 M⁻¹ s⁻¹; in experiment [2], 1700 ± 300 M⁻¹ s⁻¹; in experiment [2] (listed as fetuin), 1700 M⁻¹ s⁻¹. In experiment [5], the IC50 worked out at 4200 nM. Besides, the “Maximal effect, percent neutralization” value in experiment [5] is “approximately 150%”.
